In patent US20230357343A1 (ASHER BIOTHERAPEUTICS, published 2023):
Residue numbers refer to the chain shown, from its start. Names may count otherwise.

T1: mouse CD8 (mouse, UniProt P10300 22-175, limits assumed)
T1 construct: also called mouse CD8b
T1 sequence (looked up): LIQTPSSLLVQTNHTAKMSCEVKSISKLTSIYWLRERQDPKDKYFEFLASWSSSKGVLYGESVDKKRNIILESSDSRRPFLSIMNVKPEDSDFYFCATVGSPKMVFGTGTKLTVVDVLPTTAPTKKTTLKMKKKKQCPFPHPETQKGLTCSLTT

B1: xhCD8.1-hIL21 v29 (other)
chain: QGQDRHMIRMRQLIDIVDQLKNYVNDLVPEFLPAPEDVETNCEWSAFSCFQKAQLKSANTGNNERIINVSIKKLKRKPPGGGGEGGGGGEGGCPSCDSYEKKPPKEFLERFKSLLQKMIHQHLSSRTHGSEDS
VH: QVQLVQSGAEVKKPGSSVKVSCKASGGTFSSYAISWVRQAPGQGLEWMGGIIPGYATANYAQKFQGRVTITADESTSTAYMELSSLRSEDTAVYYCARDAAGIRLFADWGQGTLVTVSS
VL: DIQMTQSPSSLSASVGDRVTITCRASQSIYGALNWYQQKPGKAPKLLIYGASNLQSGVPSRFSGSGSGTDFTLTISSLQPEDFATYYCQSTYTAPWTFGGGTKVEIK
notes: hIgG1/kappa; IL-21 part on one heavy-chain C-terminus via (G4S)3 linker
B2: xhCD8.1-hIL21 v30 (other)
chain: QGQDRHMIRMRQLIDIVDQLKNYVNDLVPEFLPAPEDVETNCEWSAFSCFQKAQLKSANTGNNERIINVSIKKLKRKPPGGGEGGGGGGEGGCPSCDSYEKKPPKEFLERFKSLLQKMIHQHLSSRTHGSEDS
VH: B1 VH
VL: B1 VL
notes: as for B1
B3: xhCD8.1-hIL21 v27 (other)
chain: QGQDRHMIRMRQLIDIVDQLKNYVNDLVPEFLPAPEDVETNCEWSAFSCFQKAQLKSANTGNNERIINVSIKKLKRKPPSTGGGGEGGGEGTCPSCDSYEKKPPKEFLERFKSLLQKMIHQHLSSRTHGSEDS
VH: B1 VH
VL: B1 VL
notes: as for B1
B4: xhCD8.1-hIL21 v31 (other)
chain: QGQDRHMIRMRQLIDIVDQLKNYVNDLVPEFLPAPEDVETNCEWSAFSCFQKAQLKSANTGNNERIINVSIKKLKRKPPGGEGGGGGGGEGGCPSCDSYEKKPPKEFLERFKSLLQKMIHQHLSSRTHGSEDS
VH: B1 VH
VL: B1 VL
notes: as for B1
B5: xhCD8.1-hIL21 v28 (other)
chain: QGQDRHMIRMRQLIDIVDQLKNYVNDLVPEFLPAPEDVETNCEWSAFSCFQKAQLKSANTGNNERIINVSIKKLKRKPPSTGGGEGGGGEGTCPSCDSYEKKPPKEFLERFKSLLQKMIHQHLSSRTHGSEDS
VH: B1 VH
VL: B1 VL
notes: as for B1
B6: xhCD8-hIL21 v2 (other)
chain: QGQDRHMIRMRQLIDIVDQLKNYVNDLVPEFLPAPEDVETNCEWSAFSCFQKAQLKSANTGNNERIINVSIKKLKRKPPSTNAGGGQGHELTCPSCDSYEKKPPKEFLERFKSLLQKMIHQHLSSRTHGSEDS
VH: QVHLQQSGPELVKPGASVKMSCKTSGYTFTKYTMHWVKQGHEESLEWIGHFNPNNDETKYNQKFTGKATLTVDKSSTTAYMELRSLTSDDSALYYCARDGLGLRLFADWGQGTLITVSA
VL: DIQMTQSPASLSASVGETVTITCGASENIYGALNWYQRKQGKSPQLLIFGATNLADGVSSRFSGSGSDRQYSLKISSLHPDDVATYYCQNILDTPWTFGGGTKLEIK
notes: hIgG1/kappa; IL-21 part on one heavy-chain C-terminus via (G4S)3 linker; also called exemplary IL-21 polypeptide 2
B7: xhCD8-hIL21 v6 (other)
chain: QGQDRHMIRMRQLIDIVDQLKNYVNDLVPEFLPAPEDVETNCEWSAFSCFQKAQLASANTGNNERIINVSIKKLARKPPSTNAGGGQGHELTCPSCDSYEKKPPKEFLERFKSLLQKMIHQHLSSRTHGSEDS
VH: B6 VH
VL: B6 VL
notes: hIgG1/kappa; IL-21 part on one heavy-chain C-terminus via (G4S)3 linker; also called exemplary IL-21 polypeptide 6
B8: xhCD8-hIL21 v1 (other)
chain: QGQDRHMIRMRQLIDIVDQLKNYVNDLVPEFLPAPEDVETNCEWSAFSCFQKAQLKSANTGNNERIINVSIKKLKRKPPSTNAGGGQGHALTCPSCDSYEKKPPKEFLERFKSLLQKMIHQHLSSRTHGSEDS
VH: B6 VH
VL: B6 VL
notes: hIgG1/kappa; also called exemplary IL-21 polypeptide 1
B9: xhCD8.1-hIL21 v2.42 (other)
chain: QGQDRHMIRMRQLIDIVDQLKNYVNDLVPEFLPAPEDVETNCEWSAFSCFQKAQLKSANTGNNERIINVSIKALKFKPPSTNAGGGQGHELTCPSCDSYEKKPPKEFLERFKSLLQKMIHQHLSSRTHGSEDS
VH: B1 VH
VL: B1 VL
notes: as for B1
B10: xhCD8.1-hIL21 v2.20 (other)
chain: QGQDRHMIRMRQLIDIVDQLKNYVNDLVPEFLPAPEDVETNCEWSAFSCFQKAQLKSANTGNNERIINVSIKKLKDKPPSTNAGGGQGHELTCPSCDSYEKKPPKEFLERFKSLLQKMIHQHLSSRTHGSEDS
VH: B1 VH
VL: B1 VL
notes: as for B1
B11: xhCD8.1-hIL21 v2.45 (other)
chain: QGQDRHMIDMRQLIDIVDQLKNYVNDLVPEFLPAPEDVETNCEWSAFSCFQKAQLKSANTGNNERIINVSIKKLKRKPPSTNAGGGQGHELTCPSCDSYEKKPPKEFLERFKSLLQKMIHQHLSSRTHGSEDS
VH: B1 VH
VL: B1 VL
notes: as for B1
B12: xhCD8.1-hIL21 v2.43 (other)
chain: not shown
VH: B1 VH
VL: B1 VL
notes: as for B1
B13: xhCD8.1-hIL21 v2.46 (other)
chain: not shown
VH: B1 VH
VL: B1 VL
notes: as for B1
B14: xhCD8.1-hIL21 v2.63 (other)
chain: QGQDRHMIRMRQLIDRIDQLKNYVNDLVPEFLPAPEDVETNCEWSAFSCFQKAQLKSANTGNNERIINVSIKKIKRKPPSTNAGGGQGHELTCPSCDSYEKKPPKEFLERFKSLLQKMIHQHLSSRTHGSEDS
VH: B1 VH
VL: B1 VL
notes: as for B1
B15: xhCD8.1-hIL21 v2.65 (other)
chain: B14 chain with L13R, R16A
VH: B1 VH
VL: B1 VL
notes: as for B1
B16: xhCD8.1-hIL21 v2.64 (other)
chain: B14 chain with L13F, R16A, I17A, I74M
VH: B1 VH
VL: B1 VL
notes: as for B1
B17: xhCD8v11 (antibody, V domains shown)
VH: EVQLVESGGGLVQPGGSLRLSCAASGFTFSSYAMSWVRQAPGKGLEWVSDITYAGGSTAYADSVKGRFTISRDNAKNSLYLQMNSLRAEDTAVYYCARSNAYAWDDALDIWGQGTLVTVSS
VL: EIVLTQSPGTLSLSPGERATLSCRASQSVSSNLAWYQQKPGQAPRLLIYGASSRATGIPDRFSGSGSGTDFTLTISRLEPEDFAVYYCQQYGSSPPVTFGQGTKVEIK
notes: used as targeting arm of fusions
B18: xhCD8.1-hIL21 v2.7 (other)
chain: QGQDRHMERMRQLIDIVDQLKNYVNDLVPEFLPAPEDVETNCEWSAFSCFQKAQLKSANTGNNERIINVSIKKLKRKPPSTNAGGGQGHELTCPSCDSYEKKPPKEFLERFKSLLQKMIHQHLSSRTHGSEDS
VH: B1 VH
VL: B1 VL
notes: as for B1
B19: xhCD8.1-hIL21 v2.41 (other)
chain: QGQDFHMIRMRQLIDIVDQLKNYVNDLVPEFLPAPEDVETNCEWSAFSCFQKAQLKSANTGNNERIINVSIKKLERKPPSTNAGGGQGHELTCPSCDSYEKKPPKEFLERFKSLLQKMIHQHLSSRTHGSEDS
VH: B1 VH
VL: B1 VL
notes: as for B1
B20: xhCD8.1-hIL21 v2.58 (other)
chain: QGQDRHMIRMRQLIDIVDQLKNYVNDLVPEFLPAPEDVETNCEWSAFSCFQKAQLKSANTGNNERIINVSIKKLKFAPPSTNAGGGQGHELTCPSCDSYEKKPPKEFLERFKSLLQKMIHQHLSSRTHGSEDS
VH: B1 VH
VL: B1 VL
notes: as for B1
B21: xhCD8.1-hIL21 v2.9 (other)
chain: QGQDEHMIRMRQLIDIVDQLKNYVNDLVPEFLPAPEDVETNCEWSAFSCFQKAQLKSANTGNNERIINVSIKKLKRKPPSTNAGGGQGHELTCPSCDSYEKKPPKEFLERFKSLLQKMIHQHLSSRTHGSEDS
VH: B1 VH
VL: B1 VL
notes: as for B1
B22: xhCD8.1-hIL21 v2.28 (other)
chain: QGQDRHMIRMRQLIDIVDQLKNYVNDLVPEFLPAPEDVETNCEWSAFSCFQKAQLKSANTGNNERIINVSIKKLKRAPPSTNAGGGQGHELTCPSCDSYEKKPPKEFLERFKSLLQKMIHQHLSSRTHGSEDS
VH: B1 VH
VL: B1 VL
notes: as for B1
B23: xhCD8.1-hIL21 v2.38 (other)
chain: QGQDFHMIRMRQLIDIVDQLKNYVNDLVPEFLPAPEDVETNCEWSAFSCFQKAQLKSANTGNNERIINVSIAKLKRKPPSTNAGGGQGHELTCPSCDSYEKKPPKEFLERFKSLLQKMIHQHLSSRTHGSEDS
VH: B1 VH
VL: B1 VL
notes: as for B1
B24: xhCD8.1-hIL21 v2.56 (other)
chain: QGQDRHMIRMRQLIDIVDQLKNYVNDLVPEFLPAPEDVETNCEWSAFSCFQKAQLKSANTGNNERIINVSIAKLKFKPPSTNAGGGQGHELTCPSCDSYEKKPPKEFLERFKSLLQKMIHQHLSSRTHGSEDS
VH: B1 VH
VL: B1 VL
notes: as for B1
B25: xhCD8.1-hIL21 v2.40 (other)
chain: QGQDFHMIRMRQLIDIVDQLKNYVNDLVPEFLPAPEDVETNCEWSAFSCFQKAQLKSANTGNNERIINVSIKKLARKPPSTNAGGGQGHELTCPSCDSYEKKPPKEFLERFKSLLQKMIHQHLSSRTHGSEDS
VH: B1 VH
VL: B1 VL
notes: as for B1
B26: xhCD8.1-hIL21 v2.31 (other)
chain: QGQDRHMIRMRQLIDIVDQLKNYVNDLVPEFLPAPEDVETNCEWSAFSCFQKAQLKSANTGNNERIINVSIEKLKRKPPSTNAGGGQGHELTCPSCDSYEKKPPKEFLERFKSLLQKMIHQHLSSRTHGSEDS
VH: B1 VH
VL: B1 VL
notes: as for B1
B27: xhCD8.1-hIL21 v2.30 (other)
chain: not shown
VH: B1 VH
VL: B1 VL
notes: as for B1
B28: xhCD8.1-hIL21 v2.39 (other)
chain: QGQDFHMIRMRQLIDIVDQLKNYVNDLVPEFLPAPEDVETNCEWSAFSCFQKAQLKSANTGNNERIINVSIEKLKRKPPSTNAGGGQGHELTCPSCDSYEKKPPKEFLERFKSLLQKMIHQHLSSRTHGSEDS
VH: B1 VH
VL: B1 VL
notes: as for B1
B29: xhCD8.1-hIL21 v2.33 (other)
chain: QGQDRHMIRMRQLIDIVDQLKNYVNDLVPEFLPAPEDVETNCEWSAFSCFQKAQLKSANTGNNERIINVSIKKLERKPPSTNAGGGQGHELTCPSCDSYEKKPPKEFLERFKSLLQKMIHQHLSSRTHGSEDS
VH: B1 VH
VL: B1 VL
notes: as for B1
B30: xhCD8.1-hIL21 v2.29 (other)
chain: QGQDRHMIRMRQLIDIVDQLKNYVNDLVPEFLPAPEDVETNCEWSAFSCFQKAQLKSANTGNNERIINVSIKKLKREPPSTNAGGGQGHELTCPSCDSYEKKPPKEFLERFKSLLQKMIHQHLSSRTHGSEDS
VH: B1 VH
VL: B1 VL
notes: as for B1
B31: xhCD8.1-hIL21 v2.32 (other)
chain: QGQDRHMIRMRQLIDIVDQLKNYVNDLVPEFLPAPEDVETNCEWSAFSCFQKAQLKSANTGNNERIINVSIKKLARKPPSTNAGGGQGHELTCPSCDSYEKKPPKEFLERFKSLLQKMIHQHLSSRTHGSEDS
VH: B1 VH
VL: B1 VL
notes: as for B1
B32: xhCD8.1-hIL21 v2.36 (other)
chain: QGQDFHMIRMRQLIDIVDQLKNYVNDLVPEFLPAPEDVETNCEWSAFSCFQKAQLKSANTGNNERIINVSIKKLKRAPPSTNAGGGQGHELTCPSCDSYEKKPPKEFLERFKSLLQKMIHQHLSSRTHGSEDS
VH: B1 VH
VL: B1 VL
notes: as for B1
B33: xhCD8.1-hIL21 v2.37 (other)
chain: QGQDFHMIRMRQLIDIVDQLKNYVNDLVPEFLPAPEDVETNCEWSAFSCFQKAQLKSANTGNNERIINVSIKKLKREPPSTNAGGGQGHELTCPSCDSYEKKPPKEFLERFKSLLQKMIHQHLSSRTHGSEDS
VH: B1 VH
VL: B1 VL
notes: as for B1
B34: xhCD8.1-hIL21 v2.34 (other)
chain: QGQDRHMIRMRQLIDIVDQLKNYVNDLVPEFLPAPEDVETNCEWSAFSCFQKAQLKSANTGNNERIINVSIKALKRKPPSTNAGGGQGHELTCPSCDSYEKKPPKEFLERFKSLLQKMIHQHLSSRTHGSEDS
VH: B1 VH
VL: B1 VL
notes: as for B1

Molecular target: T2, Human IL-21R (Biolegend, Catalog No. 773104) (human, UniProt Q9HBE5 20-232, limits assumed)
T2 construct: Bought protein; also called IL-21 receptor
T2 sequence (Q9HBE5 20-232 limits assumed): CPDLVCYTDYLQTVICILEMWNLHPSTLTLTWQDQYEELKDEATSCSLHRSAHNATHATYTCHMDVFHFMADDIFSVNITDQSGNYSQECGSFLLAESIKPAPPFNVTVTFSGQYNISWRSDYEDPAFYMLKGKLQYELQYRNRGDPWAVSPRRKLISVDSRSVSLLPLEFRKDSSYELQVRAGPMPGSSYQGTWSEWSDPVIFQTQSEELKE
Experiment: SPR 37 C

Question: With B1 as the binder, how does the “fold difference in IL-21R affinity against wild type IL-21” value (from here on “fold difference in IL-21R affinity”) read?
Answer: Its value is ≤ 2 fold.

Question: For B2, which “fold difference in IL-21R affinity” value is on record?
Answer: Its value is ≤ 2 fold.

Question: With B3 as the binder, how does the “fold difference in IL-21R affinity” value read?
Answer: Its value is ≤ 2 fold.

Question: For B4, which “fold difference in IL-21R affinity” value is on record?
Answer: The value was ≤ 2 fold.

Question: With B5 as the binder, how does the “fold difference in IL-21R affinity” value read?
Answer: The value was ≤ 2 fold.

Question: Which “fold difference in IL-21R affinity” value does the source give for B6 here?
Answer: Its value is ≤ 2 fold.

Question: Which “fold difference in IL-21R affinity” value does the source give for B7 here?
Answer: The value was ~3 fold.

Question: With B8 as the binder, how does the “fold difference in IL-21R affinity” value read?
Answer: Its value is ≤ 2 fold.

Molecular target: T3, recombinant human IL-21R, extracellular domain fused to 8xHistidine tag (generated in house) (human, UniProt Q9HBE5 20-232)
T3 sequence (Q9HBE5 other isoform, or with tags, fused parts or gaps limits assumed): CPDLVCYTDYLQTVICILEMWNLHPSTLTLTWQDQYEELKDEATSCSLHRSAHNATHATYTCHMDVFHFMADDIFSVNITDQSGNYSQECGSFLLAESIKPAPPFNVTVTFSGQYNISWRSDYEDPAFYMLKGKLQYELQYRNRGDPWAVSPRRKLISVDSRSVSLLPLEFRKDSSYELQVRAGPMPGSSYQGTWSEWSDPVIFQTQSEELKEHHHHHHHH
Experiment: SPR 37 C

Question: Does B9 bind?
Answer: Result: no binding

Question: Does B10 bind?
Answer: Result: no binding

Question: Does B11 bind?
Answer: Result: no binding

Question: Does B12 bind?
Answer: Result: no binding

Question: Does B13 bind?
Answer: Result: no binding

Molecular target: human CD8 on CD8+ T cells (human, UniProt P01732 22-235; P10966 22-210)
Sequence (P01732 22-235, chain 1 of 2): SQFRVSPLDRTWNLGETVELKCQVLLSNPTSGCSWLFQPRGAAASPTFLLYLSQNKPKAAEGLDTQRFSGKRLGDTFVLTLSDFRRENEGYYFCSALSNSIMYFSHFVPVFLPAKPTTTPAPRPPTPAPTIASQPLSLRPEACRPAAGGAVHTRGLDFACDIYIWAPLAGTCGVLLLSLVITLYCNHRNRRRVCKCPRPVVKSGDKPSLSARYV
Sequence (P10966 22-210, chain 2 of 2): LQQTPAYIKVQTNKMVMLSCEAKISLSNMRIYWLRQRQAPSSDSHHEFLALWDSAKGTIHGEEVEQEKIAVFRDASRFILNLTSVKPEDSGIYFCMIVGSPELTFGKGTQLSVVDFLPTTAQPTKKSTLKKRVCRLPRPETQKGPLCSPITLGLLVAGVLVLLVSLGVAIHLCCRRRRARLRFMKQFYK
Experiment: cell-based or functional assay

Question: How did the “STAT3 activation in human whole blood (pSTAT3, flow cytometry)” value (from here on “STAT3 activation in human whole blood”) turn out when B14 was run?
Answer: Its value is > 100 fold.

Question: How did the “STAT3 activation in human whole blood” value turn out when B15 was run?
Answer: Its value is > 100 fold.

Question: With B16 as the binder, how does the “STAT3 activation in human whole blood” value read?
Answer: The value was > 100 fold.

Molecular target: T1, mouse CD8
Experiment: stated; no assay described

Question: Does B17 bind?
Answer: Result: no binding

Molecular target: T2, Human IL-21R (Biolegend, Catalog No. …)
Experiment: SPR 37 C, Fc-captured fusion;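 as to koff: biacore SPR with anti-human IgG Fc surface and blank flow cell as reference, 10 min dissociation, double-referenced, 1:1 Langmuir fit with mass transport, triplicate runs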;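 as to kon: biacore SPR with anti-human IgG Fc surface and blank flow cell as reference, 10 min dissociation, double-referenced, 1:1 Langmuir fit with mass transport, triplicate runs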

Question: What does the source list for B1?
Answer: Kd: 0.094 nM; koff: 0.00119 s⁻¹; kon: 1.27e+07 M⁻¹ s⁻¹

Question: Which results are given for B2?
Answer: Kd: 0.093 nM; koff: 0.00107 s⁻¹; kon: 1.16e+07 M⁻¹ s⁻¹

Question: Which results are given for B3?
Answer: Kd: 0.106 nM; koff: 0.00139 s⁻¹; kon: 1.31e+07 M⁻¹ s⁻¹

Question: Which Kd does the source give for B4 here?
Answer: Its Kd is 0.094 nM.

Question: What about the koff of the same binder?
Answer: The koff was 0.00113 s⁻¹.

Question: And the kon?
Answer: The kon was 1.2e+07 M⁻¹ s⁻¹.

Question: Which Kd does the source give for B5 here?
Answer: Its Kd is 0.106 nM.

Question: And the koff?
Answer: Its koff is 0.00139 s⁻¹.

Question: What about the kon of the same binder?
Answer: The kon was 1.31e+07 M⁻¹ s⁻¹.

Question: How did the Kd turn out when B6 was run?
Answer: The Kd was 0.122 nM.

Question: And the koff?
Answer: The koff was 0.0011 s⁻¹.

Question: What about the kon of the same binder?
Answer: The kon was 8.9e+06 M⁻¹ s⁻¹.

Question: What does the source list for B7?
Answer: Kd: 0.478 nM; koff: 0.0025 s⁻¹; kon: 5.2e+06 M⁻¹ s⁻¹

Question: With B8 as the binder, how does the Kd read?
Answer: Its Kd is 0.117 nM.

Question: And the koff?
Answer: Its koff is 0.00097 s⁻¹.

Question: And the kon?
Answer: The kon was 8.3e+06 M⁻¹ s⁻¹.

Molecular target: T3, recombinant human IL-21R, extracellular …
Experiment: SPR 37 C, Fc-captured fusion;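 as to koff: biacore SPR with anti-human IgG Fc surface and blank flow cell as reference, 10 min dissociation, double-referenced, 1:1 Langmuir fit with mass transport, triplicate runs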;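 as to kon: biacore SPR with anti-human IgG Fc surface and blank flow cell as reference, 10 min dissociation, double-referenced, 1:1 Langmuir fit with mass transport, triplicate runs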

Question: B18 was tested. Which Kd did it give?
Answer: Its Kd is 156 nM.

Question: B19 was tested. Which Kd did it give?
Answer: Its Kd is 104 nM.

Question: B20 was tested. Which Kd did it give?
Answer: Its Kd is 420 nM.

Question: For B21, which Kd is on record?
Answer: Its Kd is 420 nM.

Question: How did the Kd turn out when B22 was run?
Answer: The Kd was 0.693 nM.

Question: How did the Kd turn out when B23 was run?
Answer: The Kd was 66.9 nM.

Question: With B24 as the binder, how does the Kd read?
Answer: Its Kd is 156 nM.

Question: B25 was tested. Which Kd did it give?
Answer: The Kd was 54.7 nM.

Question: B26 was tested. Which Kd did it give?
Answer: The Kd was 3.4 nM.

Question: With B27 as the binder, how does the Kd read?
Answer: The Kd was 0.419 nM.

Question: With B28 as the binder, how does the Kd read?
Answer: Its Kd is 614 nM.

Question: B29 was tested. Which Kd did it give?
Answer: Its Kd is 1.3 nM.

Question: For B30, which Kd is on record?
Answer: The Kd was 2.8 nM.

Question: Which Kd does the source give for B31 here?
Answer: The Kd was 0.236 nM.

Question: For B32, which Kd is on record?
Answer: The Kd was 125 nM.

Question: With B33 as the binder, how does the Kd read?
Answer: The Kd was 601 nM.

Question: Which Kd does the source give for B34 here?
Answer: The Kd was 2 nM.
